This is an account of results in patent publication US20260250410A1 (SICHUAN HUIYU PHARMACEUTICAL, published 2026).

The labels stand for the following.
B1: 3C11 (antibody, V domains shown)
VH: EVQLQQSGTVLARPGASVKMSCKASGYNFISYWLHWIKQRPGQGLEWIGGIYPGNTDTTYNQKFKGKAKVTAVTSATTAYMELSSLTNEDSAVYYCIRYDYDRGMDYWGQGTTVTVSS
VL: DIQMTQSPSSFSVSLGDRVTITCRASEDIYYRLAWYQQKPGNAPRLLISGATALETGVPSRFSGSGSGKDYTLSITSLQTEDVATYYCQHYWNIPWTFGGGTKLEIK
notes: murine hybridoma mAb
B2: 12E6 (antibody, V domains shown)
VH: EVQLKESGPGILQPSQTLSLTCSFSGFSLSTSGMGVGWIRQPSGKGLEWLAHIWWDDVKLYNPALKSRLTISKETSNNQVFLKIASVDAADTATYYCARIDHGYGSNYWDFDVWGAGTTVTVSS
VL: DIVMTQAAPSVPVTPGGSVSISCRSTKSLLHSDGKTYLYWFLQRPGQSPQLLIYRMSNLASGVPDRFSGSGSGTAFTLRISRVEAEDVGVYYCMQHLEYPFTFGSGTKLEIK
notes: murine hybridoma mAb
B3: 1CP-128 (antibody, human IgG1, kappa, V domains shown)
VH: QVQLVQSGAEVKKPGASVKVSCKASGYNFISYWLHWVRQAPGQGLEWMGGIYPGNTDTTYNQKFKGRVTMTRDTSTSTVYMELSSLRSEDTAVYYCIRYDYDRGMDYWGQGTLVTVSS
VL: DIQMTQSPSSLSASVGDRVTITCRASEDIYYRLAWYQQKPGKAPKLLISGATALETGVPSRFSGSGSGKDYTLTISSLQPEDIATYYCQHYWNIPWTFGQGTKVEIKR
notes: humanized 3C11, human IgG1 kappa
B4: 1CP-129 (antibody, human IgG1, kappa, V domains shown)
VH: B3 VH with R72A
VL: B3 VL
notes: as for B3
B5: 1CP-152 (antibody, human IgG1, kappa, V domains shown)
VH: EVQLVESGGGLVQPGRSLRLSCTTSGLTFTHYHMSWVRQAPGKGLEWVAIIRNKAYGYTTDYSASVRGRFTISRDDSKSILYLQMNSLKTEDTAVYYCVREGGYGYDGTFAYWGQGTLVTVSS
VL: DIQMTQSPSSLSASVGDRVTITCRASESVDNYGISFMNWFQQKPGQAPKLLIYAASNQGSGVPSRFSGSGSGTDFTLTISSMQPEDFATYYCQQSKEVPRTFGGGTKVEIKR
notes: humanized 8C9, human IgG1 kappa
B6: 1CP-157 (antibody, human IgG1, kappa, V domains shown)
VH: B5 VH with L45P
VL: B5 VL with A47P
notes: as for B5

Substitutions are numbered along the chain they refer to.

As usually defined, the EC50 is the midpoint of the concentration-response curve. Low values mean higher potency in that assay, high ones lower potency in that assay. By Kd is commonly meant a measure of binding affinity in units of concentration.

One assay concerns the target T1, human CDCP1 on tumor cells (human, UniProt Q9H5V8 30-836).
T1 construct: whole, on cells; cell line is named under assay or readout
T1 sequence (looked up): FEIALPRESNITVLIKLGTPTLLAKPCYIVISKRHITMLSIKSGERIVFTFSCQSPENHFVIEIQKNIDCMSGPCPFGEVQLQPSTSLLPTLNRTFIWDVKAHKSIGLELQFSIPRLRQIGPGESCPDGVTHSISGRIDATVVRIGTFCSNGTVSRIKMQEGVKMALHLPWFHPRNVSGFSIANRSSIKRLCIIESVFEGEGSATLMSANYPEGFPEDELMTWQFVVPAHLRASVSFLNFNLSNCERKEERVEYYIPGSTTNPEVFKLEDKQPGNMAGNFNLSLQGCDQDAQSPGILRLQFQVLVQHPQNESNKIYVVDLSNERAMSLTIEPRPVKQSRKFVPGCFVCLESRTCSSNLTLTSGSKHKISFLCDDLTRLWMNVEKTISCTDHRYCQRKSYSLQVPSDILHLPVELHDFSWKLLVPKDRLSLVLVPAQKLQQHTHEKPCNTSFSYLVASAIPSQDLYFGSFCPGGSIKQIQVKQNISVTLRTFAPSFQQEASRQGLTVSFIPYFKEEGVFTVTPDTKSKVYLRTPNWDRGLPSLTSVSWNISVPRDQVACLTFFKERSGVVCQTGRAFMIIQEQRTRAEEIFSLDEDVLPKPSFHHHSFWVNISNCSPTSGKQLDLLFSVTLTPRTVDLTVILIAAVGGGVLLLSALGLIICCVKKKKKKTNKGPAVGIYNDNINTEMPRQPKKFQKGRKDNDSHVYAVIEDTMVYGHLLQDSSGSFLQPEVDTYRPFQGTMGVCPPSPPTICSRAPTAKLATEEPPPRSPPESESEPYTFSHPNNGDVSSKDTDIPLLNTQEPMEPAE
The experiment in a line: flow cytometry, PC3 cells. As to the method: Flow cytometry was used to detect the binding capacity of antibody to tumor cells. […] 2.0×10⁴ tumor cells were added per well, respectively, and 50 μL (PBS+2% FBS) were added, and after blocking at room temperature with an Fe blocker (Human TruStain FcX™, Biolegend, 422302) for 10 mins, an anti-CDCP1 murine monoclonal antibody at a final concentration of 200 nM was added. The obtained mixture was subjected to a 3-fold serial dilution across 8 concentration points, and incubated at 4° C. for 30 mins, and then incubated with a secondary antibody (PE anti-human IgG Fc Antibody, Biolegend, 410708), detection was performed using a flow cytometer.
B1 showed a half-maximal effective concentration (EC50) of 0.23 nM.
In turn, B2 returned an EC50 of 10.1 nM.

The target in another assay is T2, HuCDCP1-B (human, UniProt Q9H5V8 343-667).
T2 construct: range 343-667; expressed in HEK-293T, purified by Fc/his tag; also called human CDCP1-B; membrane-proximal region of CDCP1; not shown: Fc or his tag
T2 sequence (looked up): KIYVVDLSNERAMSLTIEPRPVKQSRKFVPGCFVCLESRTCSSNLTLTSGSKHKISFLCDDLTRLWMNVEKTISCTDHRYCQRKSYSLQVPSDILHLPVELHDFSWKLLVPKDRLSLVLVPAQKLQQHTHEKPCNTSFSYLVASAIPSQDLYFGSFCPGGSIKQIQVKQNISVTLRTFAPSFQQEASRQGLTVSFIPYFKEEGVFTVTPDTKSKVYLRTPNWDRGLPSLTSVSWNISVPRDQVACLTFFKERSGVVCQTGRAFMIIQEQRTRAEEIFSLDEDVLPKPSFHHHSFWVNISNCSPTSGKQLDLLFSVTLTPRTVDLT
The experiment in a line: SPR (Caterra), antigen immobilized.
Regarding B3, the Kd came to 109 nM.
Still for that read-out and setting: the result for B4 reads 157 nM; that for B5, 110 nM.
Same read-out and setting: the result for B6 reads 359 nM.

Another assay concerns the target T3, CynoCDCP1 (Macaca fascicularis, UniProt A0A2K5VLA8 30-667).
T3 construct: extracellular domain; also called Macaca fascicularis CDCP1; monkey CDCP1; not shown: Fc or his tag
T3 sequence: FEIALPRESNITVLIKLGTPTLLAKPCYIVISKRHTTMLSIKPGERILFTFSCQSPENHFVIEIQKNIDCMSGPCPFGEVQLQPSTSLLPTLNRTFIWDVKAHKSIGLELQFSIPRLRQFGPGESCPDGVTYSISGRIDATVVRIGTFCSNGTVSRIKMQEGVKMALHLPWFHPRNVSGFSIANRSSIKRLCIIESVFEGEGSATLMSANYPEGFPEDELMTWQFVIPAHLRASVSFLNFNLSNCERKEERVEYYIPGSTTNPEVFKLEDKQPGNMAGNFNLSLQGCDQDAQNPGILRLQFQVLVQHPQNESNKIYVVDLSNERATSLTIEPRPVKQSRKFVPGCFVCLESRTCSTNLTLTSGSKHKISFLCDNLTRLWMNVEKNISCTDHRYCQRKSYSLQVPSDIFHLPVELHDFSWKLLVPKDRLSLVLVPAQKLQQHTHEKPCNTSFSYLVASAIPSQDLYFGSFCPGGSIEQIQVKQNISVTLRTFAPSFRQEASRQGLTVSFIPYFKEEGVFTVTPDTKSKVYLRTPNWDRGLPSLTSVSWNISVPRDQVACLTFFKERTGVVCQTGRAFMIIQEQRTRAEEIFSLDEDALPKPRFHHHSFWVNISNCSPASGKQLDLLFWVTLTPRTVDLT
The experiment in a line: SPR (Caterra), antigen immobilized.
The molecule B3 gave an equilibrium dissociation constant (Kd) of 47.5 nM.
In turn, B4 returned a dissociation constant (Kd) of 53.8 nM.
The molecule B5 came in with a Kd of 2.9 nM. Compared with the last molecule, the Kd is about 19-fold lower.
The molecule B6 returned a Kd of 2.6 nM. This Kd and that of the molecule before are within 1.5-fold of each other.

The target in another assay is T2, HuCDCP1-B. Nature of the assay: SPR (Caterra or Biacore), antigen immobilized. A general note: In SPR one partner is held on a chip, and binding of the other changes the refractive index at the surface.
As to B1, the EC50 turned out to be 3.78 nM.
For the molecule B2, the 50% effective concentration (EC50) worked out at 1.62 nM. This EC50 is about 2.3-fold lower than that of the molecule before.
